Reference: patent US9803013B2, “Biological materials and uses thereof” (BioInvent International AB, priority 2005, dated 2017)

Experiments:
[1] = system: RPMI-8226 myeloma tumors; experiment: Established RPMI-8226 tumors in SCID mice with macrophage or NK cell depletion; assay type: in vivo, mouse
From the text: Fc-FcγR-interactions, in addition to enhancing antibody induced negative signalling and tumor PCD (Wilson et al., 2011), may involve both innate and adaptive arms of cellular immunity (Alduaij and Illidge, 2011; Park et al., 2010). Different approaches to assess the role of NK cells and macrophages were used—two principal cell types capable of conferring FcγR dependent antitumor effects—for BI-505 therapeutic activity; Firstly, the relative abundance of these cell types in tumor tissue harvested from BI-505 or control antibody treated mice were examined. […] In contrast, very few intratumoral NK cells could be detected (CD49b^+ CD31^− cells). […] To verify this macrophages or NK cells were depleted, using clodronate liposomes and anti-asialo antibodies respectively, from SCID mice bearing established RPMI-8226 myeloma tumors and examined the effect on BI-505 anti-myeloma activity. A period of three weeks of macrophage and NK cell depletion was chosen as read out since this was the longest time-period where neither treatment affected animal well-being. […] Tumors of macrophage depleted BI-505 treated mice had doubled in size compared with tumors from animals receiving BI-505 treatment alone (VBI-505=95±39 mm^3, VBI-505+clodro=189±94 mm^3, p<0.001), but were similarly sized compared to tumors from control antibody treated mice (Vctrl IgG=198±90 mm^3, p>0.05). NK cell depletion, in contrast, had little or no effect on BI-505 antitumor activity. […]
Treatment with antibodies by intraperitoneal injection started either 1 day after cell inoculation (prophylactic model) or when tumors reached approximately 100 mm^3 (established model). […] Macrophage and NK cell depletion was assessed upon termination of tumor bearing mice exposed to effector cell depleting agents (see above), spleens were removed and splenocytes isolated by mincing through a cell strainer (70 μm nylon mesh, BD Falcon 352350), erythrocytes were removed by lysis according to manufacturer (BD Pharm Lyse 555899, BD Biosciences). […]

[2] = biological target: T1, human FcγRIIIa (Homo sapiens, UniProt P08637); experiment: BiaCore analysis of BI-505 Fc-variant binding to FcγR
T1 construct: made in house; host or cells: HEK293E cells (transient)
T1 sequence (P08637 17-254): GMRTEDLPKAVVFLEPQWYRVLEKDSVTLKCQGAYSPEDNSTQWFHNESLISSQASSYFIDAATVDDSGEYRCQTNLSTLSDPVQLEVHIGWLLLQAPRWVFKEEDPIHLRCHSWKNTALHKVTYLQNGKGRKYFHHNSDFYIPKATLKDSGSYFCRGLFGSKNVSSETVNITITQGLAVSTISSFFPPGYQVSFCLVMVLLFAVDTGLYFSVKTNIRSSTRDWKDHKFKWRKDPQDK
Description: (FIG. 20C) BiaCore analysis of BI-505 Fc-variant antibodies binding to human FcγRIIIa.
His-tagged human FcγRIIIa and mouse FcγRIV were transiently expressed in HEK293E cells, purified using Ni-NTA chromatography, and characterized by SDS-PAGE and/or Biacore. Surface plasmon resonance (SPR) measurements were performed using a Biacore 3000 instrument. Goat F(ab)′2 α-human-F(ab)′2 fragments (Jackson Laboratories) were immobilized with a CM-5 chip using a standard amine coupling protocol. BI-505 (IgG1) and IgG4 or IgG1 297Q variants of BI-505 were diluted to 15 and 60 μg/mL respectively and added to the surface at 10 μL/min for 3 min. His-tagged human FcγRIIIa or mouse FcγRIV was pre-incubated with an α-HIS antibody (R&D Systems) at a 2:1 molar ratio before addition to the chip surface, 30 μL/min, for 1 min. After each cycle the surface was regenerated twice with glycine buffer pH 1.7.

[3] = biological target: ICAM-1 (Homo sapiens, UniProt P05362); experiment: Radioiodinated IgG B11 binding to Ramos cells, Rosenthal-Scatchard analysis; design: endogenous in cells; host or cells: Ramos B lymphoma cells
ICAM-1, sequence (P05362 28-532): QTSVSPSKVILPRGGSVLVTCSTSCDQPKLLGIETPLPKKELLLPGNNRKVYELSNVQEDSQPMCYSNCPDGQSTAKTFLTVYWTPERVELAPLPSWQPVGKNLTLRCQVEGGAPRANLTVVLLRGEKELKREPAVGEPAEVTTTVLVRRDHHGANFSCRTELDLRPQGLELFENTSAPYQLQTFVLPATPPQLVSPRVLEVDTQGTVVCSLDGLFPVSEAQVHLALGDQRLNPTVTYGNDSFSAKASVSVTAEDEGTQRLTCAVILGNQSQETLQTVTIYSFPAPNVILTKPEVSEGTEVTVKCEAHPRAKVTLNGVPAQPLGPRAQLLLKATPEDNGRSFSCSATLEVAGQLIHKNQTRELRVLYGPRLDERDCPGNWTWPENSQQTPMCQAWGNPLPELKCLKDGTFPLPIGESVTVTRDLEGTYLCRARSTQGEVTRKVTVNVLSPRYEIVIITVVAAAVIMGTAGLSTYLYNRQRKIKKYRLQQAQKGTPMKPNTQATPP
Description: Iodination of 1 mg/ml of IgG1 B1 or IgG1 B11 proteins with [^125I] NaI was performed in PBS for 10 min using Iodogen pre-coated iodination tubes (Pierce). Free [^125I] NaI was removed by desalting on PD-10 columns (Amersham Biosciences), yielding specific radioactivities in the range of 1000-1600 cpm per ng protein. [^125I] IgG1 B1 and [^125I] IgG1 B11 was used for determination of antibody affinities.
Radioiodinated IgG B1 or IgG B11 was incubated with B lymphoma cells in DPBS-B-hIgG (DPBS-B containing 0.2 mg/ml human IgG) for 2 h on ice with intermittent mixing. Non-specific binding was determined in the presence of 0.2 mg/ml unlabelled IgG B1 or IgG B11 protein, as appropriate. […]
Cells were loaded on top 40% v/v Ficoll/DPBS-B cushions in individual tubes and were centrifuged at 400×g for 6 min at 4° C. […] Cell pellets and cell supernatants were isolated and analysed separately for ^125I-IgG protein content in a gamma counter, following cutting of the tubes in half.
Antibody affinity constants (Kd values) and epitope numbers per cell were determined from Scatchard plot analysis according to Rosenthal et al. (Anal. Biochem. (1967) 20:525-532); Bylund and Yamamura (Methods in Neurotransmitter Analysed, New York: Raven Press Ltd., 1990); and Marquardt (J. Soc. Indust. Appl. Math. (1963) 11:431-441), as previously described (Brix et al., J. Clin. Invest. (1998) 102:283-293). […]

B1: B11: fully human IgG1 antibody specific for ICAM-1; VH and VL sequences of FIG. 10 (SEQ ID NOs. 6 and 8) (antibody, listed as Homo sapiens, V domains shown)
VH: EVQLLESGGGLVQPGGSLRLSCAASGFTFSNAWMSWVRQAPGKGLEWVAFIWYDGSNKYYADSVKGRFTISRDNSKNTLYLQMNSLRAEDTAVYYCARYSGWYFDYWGQGTLVTVSS
VL: QSVLTQPPSASGTPGQRVTISCTGSSSNIGAGYDVHWYQQLPGTAPKLLIYDNNNRPSGVPDRFSGSKSGTSASLAISGLRSEDEADYYCQSYDSSLSAWLFGGGTKLTVLG
tumor volume ([1]; BI-505 treatment alone, three weeks): 95±39 mm^3 | tumor volume ([1]; NK cell depleted (anti-asialo) BI-505 treated mice): 130±53 mm^3 | tumor volume ([1]; macrophage depleted (clodronate liposomes) BI-505 treated mice): 189±94 mm^3 | binding to human FcγR [2]: bound to human FcγR | functional binding sites (receptors) per cell ([3]; Rosenthal-Scatchard plot): 47,400 | concentration at which saturable specific binding is reached ([3]; radioiodinated IgG): ~1 nM
